Laboratory results taken from publication PMC4980704.

Target: VEGF165 (human, UniProt P15692-4 27-191)
Experiment: MST

B1: V7t1 (3'-Cy3) (structured_DNA)
DNA: TGTGGGGGTGGACGGGCCGGGTAGA
Which Kd does the source give for B1 here?
Its Kd is 75.9 ± 13 nM.
